Experimental data as given in article PMC2358973, “A Cysteine Protease Is Critical for Babesia spp. Transmission in Haemaphysalis Ticks” (PLoS Pathogens, 2008).

Tests used:
[1] = system: T1, Cc1cc(=O)oc2cc(NC(=O)[C@H](CCCNC(=N)N)NC(=O)[C@H](Cc3ccccc3)NC(=O)OCc3ccccc3)ccc12; assay: fluorogenic hydrolysis assay, Michaelis-Menten fit; type: biochemical, Haemaphysalis longicornis; conditions: 25 mM citric acid/sodium phosphate, pH 6.0, 5 mM DTT
T1 construct: partial coding region (pPICZC) expressed in Pichia pastoris GS115, HiTrap chelating column purified; precursor 341 residues with 17-residue signal peptide
Description: (§1) fluorogenic hydrolysis assay, Michaelis-Menten fit on longipain

[2] = system: T2, Cc1cc(=O)oc2cc(NC(=O)[C@H](CCCNC(=N)N)NC(=O)[C@H](CCCNC(=N)N)NC(=O)OCc3ccccc3)ccc12; assay: fluorogenic hydrolysis assay, Michaelis-Menten fit; type: biochemical, Haemaphysalis longicornis; conditions: 25 mM citric acid/sodium phosphate, pH 6.0, 5 mM DTT
T2 construct: partial coding region (pPICZC) expressed in Pichia pastoris GS115, HiTrap chelating column purified; precursor 341 residues with 17-residue signal peptide
Description: as §1

Which results are given for longipain (Haemaphysalis longicornis)?
Km [1]: 12.1 ± 0.08 µM; kcat [1]: 550 s⁻¹; kcat/Km [1]: 4.5e+07 M⁻¹ s⁻¹; Km [2]: 16.0 ± 0.2 µM; kcat [2]: 800 s⁻¹; kcat/Km [2]: 5e+07 M⁻¹ s⁻¹
